# From US20230192903A1 (published 2023)
# B1: bispecific antibody CS6 (bispecific antibody, human IgG1, kappa)
# light: DIVMTQSPSSLTVTAGEKVTMSCKSSQSLLNSGNQKNYLTWYQQKPGQPPKLLIYWASTRESGVPDRFTGSGSGTDFTLTISSVQAEDLAVYYCQNDYSYPFTFGSGTKLEIKRTVAAPSVFIFPPSDEQLKSGTASVVCLLNNFYPREAKVQWKVDNALQSGNSQESVTEQDSKDSTYSLSSTLTLSKADYEKHKVYACEVTHQGLSSPVTKSFNRGEC
# heavy 1: QVQLQQPGAELVRPGASVKLSCKASGYTFTSYWINWVKQRPGQGLEWIGNIYPSDSYTNYNQKFKDKATLTVDKSSSTAYMQLSSPTSEDSAVYYCTRSWRGNSFDYWGQGTTLTVSSASTKGPSVFPLAPSSKSTSGGTAALGCLVKDYFPEPVTVSWNSGALTSGVHTFPAVLQSSGLYSLSSVVTVPSSSLGTQTYICNVNHKPSNTKVDKKVEPKSCDKTHTCPPCPAPPVAGPSVFLFPPKPKDTLMISRTPEVTCVVVDVSHEAPEVQFNWYVDGVEVHNAKTKPREEQFNSTFRVVSVLTVVHQDWLNGKEYKCKVSNKGLPAPIEKTISKTKGQPREPQVYTLPPCRDELTKNQVSLWCLVKGFYPSDIAVEWESNGQPENNYKTTPPVLDSDGSFFLYSKLTVDKSRWQQGNVFSCSVMHEALHNHYTQKSLSLSPGK
# heavy 2: QVQLQQPGAELVRPGASVKLSCKASGYTFTSYWINWVKQRPGQGLEWIGNIYPSDSYTNYNQKFKDKATLTVDKSSSTAYMQLSSPTSEDSAVYYCTRSWRGNSFDYWGQGTTLTVSSASTKGPSVFPLAPSSKSTSGGTAALGCLVKDYFPEPVTVSWNSGALTSGVHTFPAVLQSSGLYSLSSVVTVPSSSLGTQTYICNVNHKPSNTKVDKKVEPKSCDKTHTAPAPAPAPAPAPAPAPQVQLVESGGGVVQPGRSLRLSCAASGFTFSTYAMNWVRQAPGKGLEWVGRIRSKYNNYATYYADSVKDRFTISRDDSKNTLYLQMNSLRGEDTAVYYCARHGNFGNSYVSWFAYWGQGTLVTVSSGGGGSGGGGSGGGGSQTVVTQEPSLTVSPGGTVTLTCRSSTGAVTTSNYANWVQQKPGQAPRGLIGGTNKRAPGVPARFSGSLLGGKAALTLSGVQPEDEAEYTCALWYSNLWVFGGGTKVEIKGGGGSDKTHTCPPCPAPPVAGPSVFLFPPKPKDTLMISRTPEVTCVVVDVSHEAPEVQFNWYVDGVEVHNAKTKPREEQFNSTFRVVSVLTVVHQDWLNGKEYKCKVSNKGLPAPIEKTISKTKGQPREPQVCTLPPSRDELTKNQVSLSCAVKGFYPSDIAVEWESNGQPENNYKTTPPVLDSDGSFFLVSKLTVDKSRWQQGNVFSCSVMHEALHNHYTQKSLSLSPGK
# notes: CSBODY structure: two 175D10 Fab arms; second heavy chain (first heavy entry) and first heavy chain with anti-CD3 scFv (Di6-2) between CH1 and Fc2
# B2: bispecific antibody Y4 (bispecific antibody, human IgG1, kappa)
# light: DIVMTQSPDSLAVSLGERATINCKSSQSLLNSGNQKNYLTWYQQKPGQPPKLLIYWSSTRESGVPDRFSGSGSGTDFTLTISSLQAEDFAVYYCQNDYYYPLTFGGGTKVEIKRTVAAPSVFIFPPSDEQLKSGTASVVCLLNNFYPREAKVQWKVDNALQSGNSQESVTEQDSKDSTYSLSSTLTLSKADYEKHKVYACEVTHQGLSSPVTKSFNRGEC
# heavy: EVQLVESGGGLVKPGGSLRLSCAASGFSFSNSAMSWVRQAPGKGLEWVSTISSGDSYTYYADSVKGRFTISRDNAKNSLYLQMNSLRAEDTAVYYCARQGYGNALDYWGQGTLVTVSSASTKGPSVFPLAPSSKSTSGGTAALGCLVKDYFPEPVTVSWNSGALTSGVHTFPAVLQSSGLYSLSSVVTVPSSSLGTQTYICNVNHKPSNTKVDKKVEPKSCDKTHTCPPCPAPPVAGPSVFLFPPKPKDTLMISRTPEVTCVVVDVSHEAPEVQFNWYVDGVEVHNAKTKPREEQFNSTFRVVSVLTVVHQDWLNGKEYKCKVSNKGLPAPIEKTISKTKGQPREPQVYTLPPCRDELTKNQVSLWCLVKGFYPSDIAVEWESNGQPENNYKTTPPVLDSDGSFFLYSKLTVDKSRWQQGNVFSCSVMHEALHNHYTQKSLSLSPGK
# chain: QVQLVESGGGVVQPGRSLRLSCAASGFTFSTYAMNWVRQAPGKGLEWVARIRSKYNNYATYYADSVKDRFTISRDDSKNTLYLQMNSLRAEDTAVYYCARHGNFGNSYVSWFAYWGQGTLVTVSSGGGGSGGGGSGGGGSQTVVTQEPSLTVSPGGTVTLTCRSSTGAVTTSNYANWVQQKPGQAPRGLIGGTNKRAPGVPARFSGSLLGGKAALTLSGVQPEDEAEYYCALWYSNLWVFGGGTKVEIKGRGRGSDKTHTCPPCPAPPVAGPSVFLFPPKPKDTLMISRTPEVTCVVVDVSHEAPEVQFNWYVDGVEVHNAKTKPREEQFNSTFRVVSVLTVVHQDWLNGKEYKCKVSNKGLPAPIEKTISKTKGQPREPQVCTLPPSRDELTKNQVSLSCAVKGFYPSDIAVEWESNGQPENNYKTTPPVLDSDGSFFLVSKLTVDKSRWQQGNVFSCSVMHEALHNHYTQKSLSLSPGK
# notes: YBODY structure: anti-CLDN18.2 Fab arm (1E9.2) and second monomer anti-CD3 scFv (2a5)-Fc
# B3: bispecific antibody Y18 (bispecific antibody, human IgG1, kappa)
# light: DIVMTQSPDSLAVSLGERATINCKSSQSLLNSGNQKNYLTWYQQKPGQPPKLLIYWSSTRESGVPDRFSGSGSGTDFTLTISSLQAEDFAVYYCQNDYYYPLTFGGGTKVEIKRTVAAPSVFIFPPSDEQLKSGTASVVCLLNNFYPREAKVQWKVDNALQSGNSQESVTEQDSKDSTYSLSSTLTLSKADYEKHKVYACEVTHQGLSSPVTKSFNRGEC
# heavy: B2 heavy
# chain: not shown
# notes: YBODY structure: anti-CLDN18.2 Fab arm (1E9.2) and second monomer anti-CD3 scFv (L2K)-Fc
# B4: bispecific antibody CS10 (bispecific antibody, human IgG1, kappa)
# light: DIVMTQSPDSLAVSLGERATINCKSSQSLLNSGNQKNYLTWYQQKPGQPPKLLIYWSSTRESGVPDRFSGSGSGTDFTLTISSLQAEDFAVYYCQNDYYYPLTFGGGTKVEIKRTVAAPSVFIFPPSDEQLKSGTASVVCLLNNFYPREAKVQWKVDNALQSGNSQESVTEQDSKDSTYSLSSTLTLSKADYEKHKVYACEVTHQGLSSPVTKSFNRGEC
# heavy 1: B2 heavy
# heavy 2: not shown
# notes: CSBODY structure: two 1E9.2 Fab arms; second heavy chain (first heavy entry) and first heavy chain with anti-CD3 scFv (L2K) between CH1 and Fc2
# B5: bispecific antibody CS8 (bispecific antibody, human IgG1, kappa)
# light: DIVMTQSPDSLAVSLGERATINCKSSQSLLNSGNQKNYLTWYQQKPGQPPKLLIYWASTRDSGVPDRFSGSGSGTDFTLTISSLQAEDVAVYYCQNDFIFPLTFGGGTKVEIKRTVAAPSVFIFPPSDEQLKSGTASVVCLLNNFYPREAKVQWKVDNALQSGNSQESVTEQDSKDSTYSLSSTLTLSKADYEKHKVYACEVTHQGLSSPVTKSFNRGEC
# heavy 1: QVQLQESGPGLVKPSETLSLTCTVSGFSLTRYGVSWIRQPPGKGLEWIGVIWGEGNTNYNPSLKSRVTISKDSSKSQVSLKLSSVTAADTAVYYCARVNFGNALDYWGQGTLVTVSSASTKGPSVFPLAPSSKSTSGGTAALGCLVKDYFPEPVTVSWNSGALTSGVHTFPAVLQSSGLYSLSSVVTVPSSSLGTQTYICNVNHKPSNTKVDKKVEPKSCDKTHTCPPCPAPPVAGPSVFLFPPKPKDTLMISRTPEVTCVVVDVSHEAPEVQFNWYVDGVEVHNAKTKPREEQFNSTFRVVSVLTVVHQDWLNGKEYKCKVSNKGLPAPIEKTISKTKGQPREPQVYTLPPCRDELTKNQVSLWCLVKGFYPSDIAVEWESNGQPENNYKTTPPVLDSDGSFFLYSKLTVDKSRWQQGNVFSCSVMHEALHNHYTQKSLSLSPGK
# heavy 2: QVQLQESGPGLVKPSETLSLTCTVSGFSLTRYGVSWIRQPPGKGLEWIGVIWGEGNTNYNPSLKSRVTISKDSSKSQVSLKLSSVTAADTAVYYCARVNFGNALDYWGQGTLVTVSSASTKGPSVFPLAPSSKSTSGGTAALGCLVKDYFPEPVTVSWNSGALTSGVHTFPAVLQSSGLYSLSSVVTVPSSSLGTQTYICNVNHKPSNTKVDKKVEPKSCDKTHTAPAPAPAPAPAPAPAPQVQLVESGGGVVQPGRSLRLSCAASGFTFSTYAMNWVRQAPGKGLEWVGRIRSKYNNYATYYADSVKDRFTISRDDSKNTLYLQMNSLRGEDTAVYYCARHGNFGNSYVSWFAYWGQGTLVTVSSGGGGSGGGGSGGGGSQTVVTQEPSLTVSPGGTVTLTCRSSTGAVTTSNYANWVQQKPGQAPRGLIGGTNKRAPGVPARFSGSLLGGKAALTLSGVQPEDEAEYTCALWYSNLWVFGGGTKVEIKGGGGSDKTHTCPPCPAPPVAGPSVFLFPPKPKDTLMISRTPEVTCVVVDVSHEAPEVQFNWYVDGVEVHNAKTKPREEQFNSTFRVVSVLTVVHQDWLNGKEYKCKVSNKGLPAPIEKTISKTKGQPREPQVCTLPPSRDELTKNQVSLSCAVKGFYPSDIAVEWESNGQPENNYKTTPPVLDSDGSFFLVSKLTVDKSRWQQGNVFSCSVMHEALHNHYTQKSLSLSPGK
# notes: CSBODY structure: two 2C6.9 Fab arms; second heavy chain (first heavy entry) and first heavy chain with anti-CD3 scFv (Di6-2) between CH1 and Fc2
# B6: bispecific antibody CS11 (bispecific antibody, human IgG1, kappa)
# light: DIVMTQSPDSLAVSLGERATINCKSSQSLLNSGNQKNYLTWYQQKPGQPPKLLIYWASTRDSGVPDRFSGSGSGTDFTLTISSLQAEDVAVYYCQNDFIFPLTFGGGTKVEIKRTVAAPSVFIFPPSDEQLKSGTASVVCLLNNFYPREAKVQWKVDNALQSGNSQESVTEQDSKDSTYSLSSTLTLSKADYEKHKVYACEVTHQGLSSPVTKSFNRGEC
# heavy 1: B5 heavy 1
# heavy 2: not shown
# notes: CSBODY structure: two 2C6.9 Fab arms; second heavy chain (first heavy entry) and first heavy chain with anti-CD3 scFv (L2K) between CH1 and Fc2
# Key:
# Human CLDN18.2 [1] = molecular target: Human CLDN18.2 (human); assay: cell-based or functional assay
# Human CLDN18.1 = molecular target: T1, Human CLDN18.1 (human, UniProt P56856 1-261); assay: flow cytometry, 293T-hCLDN18.1 cells
# T1 construct: also called hCLDN18.1
# Human CLDN18.2 [2] = molecular target: T2, Human CLDN18.2 (human); assay: flow cytometry, NUGC4-hCLDN18.2 cells
# T2 construct: the cell line is named under assay; also called hCLDN18.2; human CLDN18.2 antigen
# Description: (§1) NUGC4 and NUGC4-hCLDN18.2 cells were cultured, digested with pancreatin and centrifuged to collect cells. The cells were collected and resuspended in buffer (PBS+1% FBS) at 1×10⁴ cells/well in a 96-well plate at 100 μL per well. Then the mixture was centrifuged at 350×g for 5 min, and the supernatant was removed.
# human CD3 antigen [3] = molecular target: T3, human CD3 antigen (human, UniProt P07766 23-126); assay: SPR (Biacore T200), human CD3 antigen on CM5 chip
# T3 construct: also called Human CD3ϵ
# Description: (§2) After the detection was completed, data fitting was carried out on the result pattern by adopting Biacore T200 Evaluation Software in a 1:1 binding fitting mode to obtain an equilibrium dissociation constant (KD).
# Human CLDN18.2 [4] = molecular target: T2, Human CLDN18.2; assay: cell-based or functional assay; remark: listed apart in the source
# Human CLDN18.2 [5] = molecular target: T2, Human CLDN18.2; assay: cell-based or functional assay; remark: listed apart in the source
# Human CLDN18.2 [6] = molecular target: T2, Human CLDN18.2; assay: flow cytometry, NUGC4-hCLDN18.2 cells; remark: listed apart in the source
# Description: as §1
# Human CLDN18.2 [7] = molecular target: T2, Human CLDN18.2; assay: flow cytometry, NUGC4 cells (endogenous CLDN18.2)
# Description: as §1
# human CD3 antigen [8] = molecular target: T3, human CD3 antigen; assay: SPR (Biacore T200), human CD3 antigen amine-coupled on CM5 chip, 1:1 fit
# Description: as §2
# Human CLDN18.2 [9] = molecular target: T2, Human CLDN18.2; assay: flow cytometry, NUGC4 cells (endogenous CLDN18.2); remark: listed apart in the source
Binder,EC50 value for killing effect on NUGC4-hCLDN18.2 cells (Human CLDN18.2 [1]),binding result (Human CLDN18.1),EC50 (Human CLDN18.2 [2]),Kd (human CD3 antigen [3]),"EC50 (pM), in vitro killing by hPBMC, NUGC4-hCLDN18.2 cells (Human CLDN18.2 [4])","EC50 (pM), in vitro killing by hPBMC, NUGC4 cells (Human CLDN18.2 [4])","Induction of expression of CD25 EC50 (pM), NUGC4 (Human CLDN18.2 [5])","Induction of expression of CD25 EC50 (pM), NUGC4-hCLDN18.2 (Human CLDN18.2 [5])","Induction of expression of CD69 EC50 (pM), NUGC4 (Human CLDN18.2 [5])","Induction of expression of CD69 EC50 (pM), NUGC4-hCLDN18.2 (Human CLDN18.2 [5])",EC50 (Human CLDN18.2 [6]),EC50 (Human CLDN18.2 [7]),Kd (human CD3 antigen [8]),EC50 value for killing effect on NUGC4 cells (Human CLDN18.2 [1]),EC50 (Human CLDN18.2 [9])
B1,< 10 pM,no binding,< 50 nM,< 15 nM,–,–,–,–,–,–,–,–,–,–,–
B2,–,–,–,–,0.378 pM,137 pM,12.2 pM,0.962 pM,0.61 pM,0.67 pM,24.4 nM,58.9 nM,5.74 nM,–,–
B3,< 10 pM,no binding,< 50 nM,–,–,–,–,–,–,–,–,–,–,< 10 pM,< 100 nM
B4,< 10 pM,no binding,< 50 nM,–,–,–,–,–,–,–,–,–,–,< 10 pM,< 100 nM
B5,< 10 pM,no binding,< 50 nM,< 15 nM,–,–,–,–,–,–,–,–,–,< 10 pM,< 100 nM
B6,< 10 pM,no binding,< 50 nM,–,–,–,–,–,–,–,–,–,–,< 10 pM,< 100 nM
